Test system: bacterially-expressed calmodulin (non-methylated)

Chain of Xenopus laevis calmodulin protein methyltransferase (chain, as listed by the source): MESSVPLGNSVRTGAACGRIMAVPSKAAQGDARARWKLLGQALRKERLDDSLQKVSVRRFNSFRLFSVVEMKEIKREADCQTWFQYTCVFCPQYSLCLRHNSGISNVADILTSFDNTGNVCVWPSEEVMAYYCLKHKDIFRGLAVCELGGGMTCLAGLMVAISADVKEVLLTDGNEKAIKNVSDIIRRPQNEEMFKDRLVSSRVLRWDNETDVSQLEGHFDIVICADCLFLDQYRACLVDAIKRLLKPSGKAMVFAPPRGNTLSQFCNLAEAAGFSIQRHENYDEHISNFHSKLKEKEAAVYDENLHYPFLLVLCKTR

Substance: Arabidopsis thaliana calmodulin protein methyltransferase
- methyltransferase activity (in vitro): Each of the proteins exhibited robust methyltransferase activity (in vitro) toward non-methylated forms of calmodulin

Substance: Homo sapiens calmodulin protein methyltransferase (valine at 209, catalytically active form)
- catalytic activity: alteration of the sequence of the clone to correspond to the gene-predicted valine restored catalytic activity to amounts similar to those observed for other cloned calmodulin KMTs
- incorporation of radiolabel from [3H-methyl]AdoMet into calmodulin (phosphorimage): the radiolabel from [^3H-methyl]AdoMet was incorporated into calmodulin, in the presence of the recombinant calmodulin methyltransferases obtained from SEQ ID NO: 1, 2, and 3
- methyltransferase activity (in vitro): Each of the proteins exhibited robust methyltransferase activity (in vitro) toward non-methylated forms of calmodulin

Substance: Xenopus laevis calmodulin protein methyltransferase
- incorporation of radiolabel from [3H-methyl]AdoMet into calmodulin (phosphorimage): the radiolabel from [^3H-methyl]AdoMet was incorporated into calmodulin, in the presence of the recombinant calmodulin methyltransferases obtained from SEQ ID NO: 1, 2, and 3
- methyltransferase activity (in vitro): Each of the proteins exhibited robust methyltransferase activity (in vitro) toward non-methylated forms of calmodulin

Substance: Homo sapiens calmodulin protein methyltransferase, initially expressed clone with V209F (cDNA Accession BC 053733)
- catalytic activity: the initially expressed form of Hscalmodulin PKMT was catalytically inactive

Substance: Rattus norvegicus calmodulin protein methyltransferase
- incorporation of radiolabel from [3H-methyl]AdoMet into calmodulin (phosphorimage): the radiolabel from [^3H-methyl]AdoMet was incorporated into calmodulin, in the presence of the recombinant calmodulin methyltransferases obtained from SEQ ID NO: 1, 2, and 3
- methyltransferase activity (in vitro): Each of the proteins exhibited robust methyltransferase activity (in vitro) toward non-methylated forms of calmodulin
- specific activity: 56 nmoles min^-1 mg protein^-1

Substance: Tribolium casteaneum calmodulin protein methyltransferase
- methyltransferase activity (in vitro): Each of the proteins exhibited robust methyltransferase activity (in vitro) toward non-methylated forms of calmodulin
